# Measured values: IntAct's records for PubMed 21398607
# Target: wasp_mouse Was (UniProt P70315)
# Sequence (P70315 whole entry): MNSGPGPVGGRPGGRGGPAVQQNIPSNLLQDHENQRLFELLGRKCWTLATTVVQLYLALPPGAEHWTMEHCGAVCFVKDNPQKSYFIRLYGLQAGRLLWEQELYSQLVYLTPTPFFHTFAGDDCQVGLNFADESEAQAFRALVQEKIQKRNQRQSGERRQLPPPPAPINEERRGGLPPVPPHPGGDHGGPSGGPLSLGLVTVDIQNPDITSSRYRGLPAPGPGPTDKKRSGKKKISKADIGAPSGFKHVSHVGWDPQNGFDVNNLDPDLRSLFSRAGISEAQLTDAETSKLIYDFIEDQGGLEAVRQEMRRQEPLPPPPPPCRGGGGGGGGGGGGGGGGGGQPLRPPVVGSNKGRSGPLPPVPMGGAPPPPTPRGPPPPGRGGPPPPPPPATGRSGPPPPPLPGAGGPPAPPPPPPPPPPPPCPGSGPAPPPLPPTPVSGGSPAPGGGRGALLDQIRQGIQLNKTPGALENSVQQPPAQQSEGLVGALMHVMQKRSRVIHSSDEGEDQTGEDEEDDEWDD
# WAS/WASL-interacting protein family member 1 (Homo sapiens), O43516 S436A, sequence (O43516 whole entry S436A): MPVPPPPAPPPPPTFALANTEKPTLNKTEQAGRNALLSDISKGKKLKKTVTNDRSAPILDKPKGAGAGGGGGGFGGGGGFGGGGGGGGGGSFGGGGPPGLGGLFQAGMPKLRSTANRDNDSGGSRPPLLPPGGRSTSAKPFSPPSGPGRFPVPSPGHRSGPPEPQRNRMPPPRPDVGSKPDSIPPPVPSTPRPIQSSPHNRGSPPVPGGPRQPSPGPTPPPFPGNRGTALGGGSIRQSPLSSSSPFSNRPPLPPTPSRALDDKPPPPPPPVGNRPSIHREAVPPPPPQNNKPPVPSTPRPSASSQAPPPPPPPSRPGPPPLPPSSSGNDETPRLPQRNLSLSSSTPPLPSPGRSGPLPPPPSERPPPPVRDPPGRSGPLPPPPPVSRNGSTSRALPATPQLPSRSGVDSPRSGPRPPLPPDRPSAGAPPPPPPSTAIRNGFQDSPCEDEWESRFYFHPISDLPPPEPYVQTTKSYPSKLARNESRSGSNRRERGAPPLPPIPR
substance,measurement,value
"WAS/WASL-interacting protein family member 1 (Homo sapiens), O43516 S436A",effect of a mutation on the interaction,disrupting interaction
